# Substitutions are numbered along the chain they refer to. Where two headings read alike, the source gives them in different places.
# B1: 7-09 (VHH)
# VHH: EVQLVESGGGLVQPGGSLRLSCAASGGTFSSIGMGWFRQAPGKEREFVAAISWDGGATAYADSVKGRFTISADNSKNTAYLQMNSLKPEDTAVYYCAKEDVGKPFDWGQGTLVTVSS
# notes: also called 7-9
# B2: 7-26 (VHH)
# VHH: EVQLVESGGGLVQPGGSLRLSCAASGSTFSINAMGWFRQAPGKEREFVAGITSSGGYTNYADSVKGRFTISADNSKNTAYLQMNSLKPEDTAVYYCAADGVPEYSDYASGPVWGQGTLVTVSS
# B3: 3-31 (VHH)
# VHH: B2 VHH
# notes: also called 3-31_ExpiCHO
# B4: 7-37 (VHH)
# VHH: B2 VHH with F29L, S53R, G56S, Y57V
# B5: 3-28 (VHH, not shown: a dimerising Fc or GST)
# VHH: EVQLVESGGGLVQPGGSLRLSCAASGFTFRRYDMGWFRQAPGKEREFVSAISGGLAYYADSVKGRFTISADNSKNTAYLQMNSLKPEDTAVYYCAVDLSGDAVYDWGQGTLVTVSS
# B6: 6A-63 (VHH)
# VHH: EVQLVESGGGLVQPGGSLRLSCAASGQTFNMGWFRQAPGKEREFVAAIGSGGSTSYADSVKGRFTISADNSKNTAYLQMNSLKPEDTAVYYCWRLGNDYFDYWGQGTLVTVSS
# B7: 7-14 (VHH)
# VHH: EVQLVESGGGLVQPGGSLRLSCAASGSTFSINAMGWFRQAPGKEREFVAGISRGGTTNYADSVKGRFTISADNSKNTAYLQMNSLKPEDTAVYYCAADGVPEYSDYASGPVWGQGTLVTVSS
# B8: 7-30 (VHH, not shown: a dimerising Fc or GST)
# VHH: EVQLVESGGGLVQPGGSLRLSCAASGRTFSMHAMGWFRQAPGKEREFVASISSQGRTNYADSVKGRFTISADNSKNTAYLQMNSLKPEDTAVYYCAAEVRNGSDYLPIDWGQGTLVTVSS
# Columns and labels:
# [1] = biological target: T1, Antibody 178-09_His B.1.1.7 (27080) (SARS-CoV-2, UniProt P0DTC2 14-685); test: Carterra SPR
# T1 construct: domain: S1; also called TB178-9
# [2] = biological target: T2, Antibody 178-10_His CA_W152C_L452R_D614G (27081) (SARS-CoV-2, UniProt P0DTC2 14-685); test: Carterra SPR
# T2 construct: domain: S1; also called CA variant S1; California variant S1
# [3] = biological target: T3, S1 RBD L452R E484Q (Acro) (SARS-CoV-2, UniProt P0DTC2 319-537); test: Carterra SPR
# T3 construct: domain: S1 RBD; also called SARS-COV-2 RBD India Var; L452R E484Q S1; India variant mutation L452R E484Q
# [4] = biological target: T1, Antibody 178-09_His B.1.1.7 (27080); test: Carterra SPR; remark: listed apart in the source
# [5] = biological target: T2, Antibody 178-10_His …; test: Carterra SPR; remark: listed apart in the source
# [6] = biological target: T3, S1 RBD L452R E484Q (Acro); test: Carterra SPR; remark: listed apart in the source
# [7] = biological target: T4, Antibody 178-08_His 501.V2 (27079) (SARS-CoV-2, UniProt P0DTC2 14-685); test: Carterra SPR
# T4 construct: domain: S1; also called TB178-8
# [8] = biological target: T4, Antibody 178-08_His 501.V2 (27079); test: Carterra SPR; remark: listed apart in the source
# [9] = biological target: T5, SARS-CoV-2 S1 [S1N-C52H4] (SARS-CoV-2, UniProt P0DTC2 16-685); test: Carterra SPR
# T5 construct: domain: S1
# [10] = biological target: SARS-CoV-2 S protein trimer [SPN-C52H7] (SARS-CoV-2, UniProt P0DTC2 16-1213); test: Carterra SPR
# [11] = biological target: SARS-CoV-2 S protein trimer (P.1 Gamma Brazil variant) [SPN-C52Hg] (SARS-CoV-2, UniProt P0DTC2 16-1213); test: Carterra SPR
# [12] = biological target: T6, SARS-CoV-2 S protein trimer (Kappa B.1.617.1 India variant) [SPN-C52Hr] (SARS-CoV-2, UniProt P0DTC2 16-1213); test: Carterra SPR
# T6 construct: also called B.1.617.1 Kappa India variant
# [13] = biological target: T7, SARS-CoV-2 S protein trimer (Alpha B.1.1.7 UK variant) [SPN-C52H6] (SARS-CoV-2, UniProt P0DTC2 16-1213); test: Carterra SPR
# T7 construct: also called B.1.1.7 Alpha UK variant
# [14] = biological target: T8, SARS-CoV-2 S protein trimer (Beta B.1.351 SA variant) [SPN-C52Hk] (SARS-CoV-2, UniProt P0DTC2 16-1213); test: Carterra SPR
# T8 construct: also called B.1.351 Beta SA variant
# [15] = biological target: T9, SARS-CoV-2 S protein trimer (Delta B.1.617.2 India variant) [SPN-C52He] (SARS-CoV-2, UniProt P0DTC2 16-1213); test: Carterra SPR
# T9 construct: also called B.1.617.2 Delta India variant [SPN-C52he]
# [16] = biological target: SARS-CoV-2 S protein trimer [SPN-C52H9] (SARS-CoV-2, UniProt P0DTC2 16-1213); test: binding kinetics, Carterra SPR
# [17] = biological target: T8, SARS-CoV-2 S protein trimer (Beta …); test: binding kinetics, Carterra SPR
# [18] = biological target: T6, SARS-CoV-2 S protein trimer (Kappa …); test: binding kinetics, Carterra SPR
# [19] = biological target: T7, SARS-CoV-2 S protein trimer (Alpha …); test: binding kinetics, Carterra SPR
# [20] = biological target: T9, SARS-CoV-2 S protein trimer (Delta …); test: binding kinetics, Carterra SPR
binder,measurement,setting,value
B1,Kd,[1],23.2 nM
same,Kd,[2],38.7 nM
same,Kd,[3],177000 nM
same,Kd,[4],23.2 nM
same,Kd,[5],38.7 nM
same,Kd,[6],177000 nM
same,binding result,[7],no binding
B2,Kd,[1],22.7 nM
same,Kd,[2],34.8 nM
same,Kd,[8],74.9 nM
same,Kd,[4],22.7 nM
same,Kd,[5],34.8 nM
same,Kd,[7],74.9 nM
B3,Kd,[9],4.12 nM
same,Kd,[1],16.1 nM
same,Kd,[2],41 nM
same,Kd,[8],96700 nM
same,Kd,[4],16.1 nM
same,Kd,[5],41 nM
same,Kd,[7],96700 nM
B4,Kd,[10],0.026 nM
same,koff,[10],1.77e-05 s⁻¹
same,kon,[10],680000 M⁻¹ s⁻¹
same,Kd,[11],0.0322 nM
same,koff,[11],2.92e-05 s⁻¹
same,kon,[11],906000 M⁻¹ s⁻¹
same,Kd,[12],0.0276 nM
same,koff,[12],2.38e-05 s⁻¹
same,kon,[12],862000 M⁻¹ s⁻¹
same,Kd,[13],0.0201 nM
same,koff,[13],1.52e-05 s⁻¹
same,kon,[13],757000 M⁻¹ s⁻¹
same,Kd,[9],20.8 nM
same,koff,[9],0.000651 s⁻¹
same,kon,[9],31400 M⁻¹ s⁻¹
same,Kd,[14],0.03 nM
same,koff,[14],2.83e-05 s⁻¹
same,kon,[14],944000 M⁻¹ s⁻¹
same,Kd,[15],0.0191 nM
same,koff,[15],1.62e-05 s⁻¹
same,kon,[15],844000 M⁻¹ s⁻¹
same,Kd,[1],17.8 nM
same,Kd,[2],45.1 nM
same,Kd,[3],58.5 nM
same,Kd,[8],123 nM
same,Kd,[16],≤ 0.0118 nM
same,koff,[16],≤ 1e-05 s⁻¹
same,kon,[16],844000 M⁻¹ s⁻¹
same,Kd,[17],0.0224 nM
same,koff,[17],2.3e-05 s⁻¹
same,kon,[17],1.03e+06 M⁻¹ s⁻¹
same,Kd,[4],17.8 nM
same,Kd,[5],45.1 nM
same,Kd,[6],58.5 nM
same,Kd,[7],123 nM
same,Kd,[18],0.0171 nM
same,koff,[18],1.67e-05 s⁻¹
same,kon,[18],977000 M⁻¹ s⁻¹
same,Kd,[19],0.0131 nM
same,koff,[19],1.15e-05 s⁻¹
same,kon,[19],875000 M⁻¹ s⁻¹
same,Kd,[20],≤ 0.0102 nM
same,koff,[20],≤ 1e-05 s⁻¹
same,kon,[20],978000 M⁻¹ s⁻¹
B5,Kd,[1],16.6 nM
same,Kd,[8],22 nM
same,Kd,[4],16.6 nM
same,binding result,[5],no binding
same,binding result,[6],no binding
same,Kd,[7],22 nM
B6,binding result,[2],no binding
B7,Kd,[10],≤ 0.0142 nM
same,koff,[10],≤ 1e-05 s⁻¹
same,kon,[10],703000 M⁻¹ s⁻¹
same,Kd,[11],0.0185 nM
same,koff,[11],1.62e-05 s⁻¹
same,kon,[11],877000 M⁻¹ s⁻¹
same,Kd,[12],0.012 nM
same,koff,[12],1e-05 s⁻¹
same,kon,[12],835000 M⁻¹ s⁻¹
same,Kd,[13],0.0128 nM
same,koff,[13],1e-05 s⁻¹
same,kon,[13],782000 M⁻¹ s⁻¹
same,Kd,[9],12.4 nM
same,koff,[9],0.000464 s⁻¹
same,kon,[9],37400 M⁻¹ s⁻¹
same,Kd,[14],0.0171 nM
same,koff,[14],1.6e-05 s⁻¹
same,kon,[14],931000 M⁻¹ s⁻¹
same,Kd,[15],0.0122 nM
same,koff,[15],1e-05 s⁻¹
same,kon,[15],818000 M⁻¹ s⁻¹
same,Kd,[1],19.2 nM
same,Kd,[2],43.1 nM
same,Kd,[3],20.1 nM
same,Kd,[8],16.9 nM
same,Kd,[16],≤ 0.0105 nM
same,koff,[16],≤ 1e-05 s⁻¹
same,kon,[16],954000 M⁻¹ s⁻¹
same,Kd,[17],0.00853 nM
same,koff,[17],1.05e-05 s⁻¹
same,kon,[17],1.23e+06 M⁻¹ s⁻¹
same,Kd,[4],19.2 nM
same,Kd,[5],43.1 nM
same,Kd,[6],20.1 nM
same,Kd,[7],16.9 nM
same,Kd,[18],≤ 0.0083 nM
same,koff,[18],≤ 1e-05 s⁻¹
same,kon,[18],1.2e+06 M⁻¹ s⁻¹
same,Kd,[19],≤ 0.00862 nM
same,koff,[19],≤ 1e-05 s⁻¹
same,kon,[19],1.16e+06 M⁻¹ s⁻¹
same,Kd,[20],≤ 0.00994 nM
same,koff,[20],≤ 1e-05 s⁻¹
same,kon,[20],1.01e+06 M⁻¹ s⁻¹
B8,Kd,[1],32 nM
same,Kd,[2],55.9 nM
same,Kd,[4],32 nM
same,Kd,[5],55.9 nM
same,binding result,[6],no binding
same,binding result,[7],no binding

# Source: patent US20230265217A1 (TWIST BIOSCIENCE, published 2023)
